This data set is described as follows: yeast display, Sf9 membrane polyspecificity reagent, FACS + sequencing; frameworks hold sequencing errors. In short, it runs like this: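 Galactose-induced (36–48 hours) yeast carrying a synthetic nanobody display library were exposed to 10% biotinylated, detergent-solubilized Sf9 membrane reagent at 4 °C for 1 hour. FACS followed streptavidin microbead enrichment, using low and high (top ~1%) gates for expression (anti-HA) and reagent binding (streptavidin). Colony PCR, MiSeq 2 × 250 sequencing and CDR-length filtering followed. Labels for polyreactivity reflect the gate of origin.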
For the sequence “QVQLVESGVGLVQARGSLRLSCAASGYIFTIYAMGWYRHAPGKERELVAAITWSGATTYYADSVKGRFTISRDNAKNTVYLQMNILKPEDTAVYYCNADYWHYYEDYDSWGQGTQVTVSS”, the “polyreactivity (PSR sort gate)” value is given as “low polyreactivity”.
“QVQLVESGVGLVQARGSLRLSCASSGSIFLVYAMGWYRQAPGKESELVAAISRSGRTYADSVKGRFTISRDNAKNTVYLQMNSLKPVDTAVYYCAAVTKRRFEGDYWGQGTQVTVSS”: the “polyreactivity (PSR sort gate)” value is on record as “high polyreactivity”.
Then “QVQLVESGVGLVQARGSLRLSSAASGITLPKYAMGWYRQEHGKERELVAAISRRGGITYYADSVKGRFTISRDNAKNTVYVQMNSLKPEDTAVYYCAADRTDTRGFDYWGQGTQVTVSS”, with “high polyreactivity”; and “QVQLVESGVRLVQSGGSLRLSCASSGFTIWRYAMGWYRQAPGKERELVAAISRSGTRTYYADSVKGRFTISRDNAKNTVYLQMNSLKPEDTAVYYCAADGLSLAYEHDYWGQGTQVTVSS”, with “high polyreactivity”; and “QVQLVESIGGLVQAGGSLRLSCAASGSIFQPYAMRWYRQAPGKERELVAAITTSGGRTYYADSVKGRFTMSRDNAKNTVYLQMNSLKPEDTAVYYCAADWGIGDYDYWGQGTQVTVSS”, with “high polyreactivity”.
Then “QVQLVESPGGLVKAGGSLRLSCDASGRTFYGYAMGWYRQPPGKEREFVAAITWSGSSTNYADSVKGRFTISRDNATNSVYLQMNSLKPDDTAVYYCAASYYAPYWSMDNWGQGTQETVSS”, with “high polyreactivity”.
The value for “QVQLVESRAGLVQAGGSLRLSCAASGSTFGYYTMGWYRQAPGKERELVAAITWSGGSSYYADSVKGRFTISRDNAKKTVYLEMNSLKAEDTAVYFGAADDYWTPFGYWGQGTQVTVSA” was “low polyreactivity”; that for “QVQLVESRGALVQAGGSLRLSCAASGYIFRAYAMGWYRPAPGKERELVAAISSRGGSTYYADSVKGRFTISRDNAKNTVYLQMNSLKPEDTAVYYCAAAYRQPYIGYGYWGQGTQVTVSS” was “high polyreactivity”.
Consider “QVQLVESRGALVQAGGSLRLSCAASGYIFYSNAMRWYRQEPGKERELVAAITSGRGSTYYADSVKGRFTISRDNAKNTVYLQMNSLIPEDTAVYYCDVSIGRYPYRYGYWGQGTQVTVSS”, for which the “polyreactivity (PSR sort gate)” value is on record as “high polyreactivity”.
Then “QVQLVESRGGLVPAGGSLRLSCAASGITFYHYAIGWYRQAPVKERELVAAISRSGGSTSYADSVKGRLTISRDNAKITVYLEMNSLIPEDTAVYYCAARLVRESEPLGYWGQGTQVTVSS”, with “high polyreactivity”; and “QVQLVESRGGLVQAGCSLRLRCAASGFIFSWYAMGWYRHAPGKERELDAAISASGTSTYYADSVKGRFTISRDNAKNTVYLQMNSLKPEDTAVYYCAAEFVTEYLYGFVYEYDSWGQGTQVTVSS”, with “low polyreactivity”; and “QVQLVESRGGLVQAGGRLRLSCAASGIIFPRNAMGWYRQAPGKERELVAAITNTGSTKYADSVKGRFTISRDNEKNTVYLHMNSLKPEDTAVYFCAKELCSVPSPSLYDYWGQGTQVTVSS”, with “low polyreactivity”.
The value for “QVQLVESRGGLVQAGGSLRLSCAASGFIFWRYAMGWYRQAPGKERELVASITYSGGRTYYADSVKGRFTISRDNAKNTVYLQMNILKPEDTAVYYCATARYRYHYYSWGQGTQVTVSS” was “high polyreactivity”.
The value for “QVQLVESRGGLVQAGGSLRLSCAASGFTFYSNAMGWYRQAPGKERELVAAIAKRGGSTYYADSVKGRFTISRDNAKNTVYLQMISLKPEDTAVYYCNKDYYARKYDYWGQGTLVTVSS” was “high polyreactivity”.
On to “QVQLVESRGGLVQAGGSLRLSCAASGITFDVYDMGWYRQAPGKERELVASINSGGGITYYADSVKGRFTISRDNAKNTVYLQMNSLKPEDTAVFYCADDTWGSSWYDLFRETSDYWGQVTQVTVSS”, for which the “polyreactivity (PSR sort gate)” value is “low polyreactivity”.
Then “QVQLVESRGGLVQAGGSLRLSCAASGITFYTYTMGWYRQAPGKERELVAVISASGARTYYADSVKGRFTISRDNAKNTVYLQMNSLKPEDTAVYYFAARSFYISPWRFDYWGQGTQVTVSS”, with “high polyreactivity”.

Values taken from the nanobody polyreactivity screen of Harvey et al. (2022).
